Test results published in paper PMC12364344.

Biological target: His6-BacA_(F134R), purified (Asticcacaulis biprosthecum)
Assay: SEC; 500 µl of purified proteins from the polymerization assay on Superdex 200 Increase 10/300 GL, column calibrated with standard proteins

stoichiometry N: 2
Substance: His6-BacA_(F134R), purified (natural protein)
